# Patent US20260167673A1, “NOVEL POLYPEPTIDE, POLYPEPTIDE DERIVATIVE AND USE THEREOF” (NANJING ANJI BIOTECHNOLOGY CO., LTD., priority 2023, published 2026)
# Substitutions are numbered along the chain they refer to. Where no end group is shown, it is not given here.
# B1: micropeptide HMMW (peptide)
# peptide: MERAGVPGFSPRRSSVEAKMQSTSCSVRKSSTVTAWPAVVLLLSWGQRRGG
# notes: 51-residue micropeptide encoded by a lncRNA
# B2: HMMW-49A (peptide)
# peptide: B1 peptide with R49A
# notes: Alanine mutant of HMMW at position 49; solid-phase synthesis
# B3: HMMW-42A (peptide)
# peptide: B1 peptide with L42A
# notes: Alanine mutant of HMMW at position 42; solid-phase synthesis
# B4: HMMW-31A (peptide)
# peptide: B1 peptide with S31A
# notes: Alanine mutant of HMMW at position 31; solid-phase synthesis
# B5: HMMW-45A (peptide)
# peptide: B1 peptide with W45A
# notes: Alanine mutant of HMMW at position 45; solid-phase synthesis
# B6: HMMW-10A (peptide)
# peptide: B1 peptide with S10A
# notes: Alanine mutant of HMMW at position 10; solid-phase synthesis
# B7: HMMW-2A (peptide)
# peptide: B1 peptide with E2A
# notes: Alanine mutant of HMMW at position 2; solid-phase synthesis
# B8: HMMW-48A (peptide)
# peptide: B1 peptide with R48A
# notes: Alanine mutant of HMMW at position 48; solid-phase synthesis
# B9: HMMW-17A (peptide)
# peptide: B1 peptide with E17A
# notes: Alanine mutant of HMMW at position 17; solid-phase synthesis
# B10: HMMW-21A (peptide)
# peptide: B1 peptide with Q21A
# notes: Alanine mutant of HMMW at position 21; solid-phase synthesis
# B11: HMMW-22A (peptide)
# peptide: B1 peptide with S22A
# notes: Alanine mutant of HMMW at position 22; solid-phase synthesis
# B12: HMMW-20A (peptide)
# peptide: B1 peptide with M20A
# notes: Alanine mutant of HMMW at position 20; solid-phase synthesis
# B13: HMMW-8A (peptide)
# peptide: B1 peptide with G8A
# notes: Alanine mutant of HMMW at position 8; solid-phase synthesis
# B14: HMMW-19A (peptide)
# peptide: B1 peptide with K19A
# notes: Alanine mutant of HMMW at position 19; solid-phase synthesis
# B15: HMMW-9A (peptide)
# peptide: B1 peptide with F9A
# notes: Alanine mutant of HMMW at position 9; solid-phase synthesis
# B16: HMMW-40A (peptide)
# peptide: B1 peptide with V40A
# notes: Alanine mutant of HMMW at position 40; solid-phase synthesis
# B17: HMMW-28A (peptide)
# peptide: B1 peptide with R28A
# notes: Alanine mutant of HMMW at position 28; solid-phase synthesis
# B18: HMMW-50A (peptide)
# peptide: B1 peptide with G50A
# notes: Alanine mutant of HMMW at position 50; solid-phase synthesis
# B19: HMMW-27A (peptide)
# peptide: B1 peptide with V27A
# notes: Alanine mutant of HMMW at position 27; solid-phase synthesis
# B20: HMMW-3A (peptide)
# peptide: B1 peptide with R3A
# notes: Alanine mutant of HMMW at position 3; solid-phase synthesis
# B21: HMMW-30A (peptide)
# peptide: B1 peptide with S30A
# notes: Alanine mutant of HMMW at position 30; solid-phase synthesis
# B22: HMMW-44A (peptide)
# peptide: B1 peptide with S44A
# notes: Alanine mutant of HMMW at position 44; solid-phase synthesis
# B23: HMMW-25A (peptide)
# peptide: B1 peptide with C25A
# notes: Alanine mutant of HMMW at position 25; solid-phase synthesis
# B24: HMMW-32A (peptide)
# peptide: B1 peptide with T32A
# notes: Alanine mutant of HMMW at position 32; solid-phase synthesis
# B25: HMMW-12A (peptide)
# peptide: B1 peptide with R12A
# notes: Alanine mutant of HMMW at position 12; solid-phase synthesis
# B26: HMMW-43A (peptide)
# peptide: B1 peptide with L43A
# notes: Alanine mutant of HMMW at position 43; solid-phase synthesis
# B27: HMMW-13A (peptide)
# peptide: B1 peptide with R13A
# notes: Alanine mutant of HMMW at position 13; solid-phase synthesis
# B28: HMMW-11A (peptide)
# peptide: B1 peptide with P11A
# notes: Alanine mutant of HMMW at position 11; solid-phase synthesis
# B29: HMMW-41A (peptide)
# peptide: B1 peptide with L41A
# notes: Alanine mutant of HMMW at position 41; solid-phase synthesis
# Biological target: T1, AQP2 protein (UniProt P41181 1-271, limits assumed)
# T1 construct: also called protein AQP2
# T1 sequence (looked up): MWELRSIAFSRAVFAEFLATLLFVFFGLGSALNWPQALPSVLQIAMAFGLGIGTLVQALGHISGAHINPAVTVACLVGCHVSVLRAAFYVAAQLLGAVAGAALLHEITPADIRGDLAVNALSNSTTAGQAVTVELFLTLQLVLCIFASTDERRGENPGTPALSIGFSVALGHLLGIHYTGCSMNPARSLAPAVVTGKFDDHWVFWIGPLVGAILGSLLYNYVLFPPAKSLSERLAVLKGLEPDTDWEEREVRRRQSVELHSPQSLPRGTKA
# Assay: microscale thermophoresis (MST); column head 'Affinity (µM)'
# Conditions: not given
# Method: Molecular docking simulation was performed on the micropeptide HMMW and a binding protein AQP2 thereof using MOE software, to identify predicted potential interaction sites. The docking simulation was divided into the following two groups: (1) random docking of an AQP2 homotetramer with the HMMW, without limiting a binding region; and (2) random docking of an AQP2 monomer with the HMMW, without limiting a binding region. Interaction sites obtained from the above two docking methods were integrated and analyzed, and all possible binding amino acids were selected as potential key sites for alanine (Ala) mutations. Due to alanine being the smallest chiral amino acid, the impact of a specific amino acid on an overall protein biological activity can be distinguished by systematically and sequentially substituting each amino acid in a sequence with Ala. The predicted polypeptides were obtained by solid-phase synthesis, and the affinity of different mutated polypeptides to the AQP2 protein was detected by microscale thermophoresis (MST) assay.
row,Molecule,Kd
1,B1,3.07 µM
2,B2,20.8 µM
3,B3,0.25 µM
4,B4,3.06 µM
5,B5,3.24 µM
6,B6,4.03 µM
7,B7,2.5 µM
8,B8,11.6 µM
9,B9,3.93 µM
10,B10,7.64 µM
11,B11,3.21 µM
12,B12,2.59 µM
13,B13,14.8 µM
14,B14,5.11 µM
15,B15,3.95 µM
16,B16,1.19 µM
17,B17,2.27 µM
18,B18,0.55 µM
19,B19,2.39 µM
20,B20,2.8 µM
21,B21,2.23 µM
22,B22,5.23 µM
23,B23,1.97 µM
24,B24,2.01 µM
25,B25,1.12 µM
26,B26,0.36 µM
27,B27,6.61 µM
28,B28,2.33 µM
29,B29,4.32 µM

# Test system: not listed separately
# Assay: Solubility of the synthesized polypeptides
# Conditions: PBS/0.1% DMSO
row,Molecule,Solubility PBS/0.1% DMSO
1,MERAGVPGFSPRRSSKMQSTSCSVRKSSTVTAWPAVVLLLSWGQRRGG [HMMW-6],Soluble
2,MERAGVPGFSPRRSSVEAKMQSTSCSVRKSSTVTAWPAVVLLGQRRGG [HMMW-15],Soluble
3,AGVPGFSPRRSSVEAKMQSTSCSVRKSSTVTAWPAVVLLLSWGQRRGG [HMMW-1],Soluble
4,MERAGVPGFSPRRSSVEAKMQSTSRKSSTVTAWPAVVLLLSWGQRRGG [HMMW-9],Soluble
5,MERAGVPGFSPRRSSVEAKMQCSVRKSSTVTAWPAVVLLLSWGQRRGG [HMMW-8],Soluble
6,MERAGVPGFSPRRSSVEASTSCSVRKSSTVTAWPAVVLLLSWGQRRGG [HMMW-7],Soluble
7,MERAGVSPRRSSVEAKMQSTSCSVRKSSTVTAWPAVVLLLSWGQRRGG [HMMW-3],Soluble
8,MERPGFSPRRSSVEAKMQSTSCSVRKSSTVTAWPAVVLLLSWGQRRGG [HMMW-2],Soluble
9,MERAGVPGFSPRRSSVEAKMQSTSCSVRKSSTVTAWPAVVLLLSWRGG [HMMW-16],Soluble
10,MERAGVPGFSPRRSSVEAKMQSTSCSVRKSSTVTAWPAVLSWGQRRGG [HMMW-14],Soluble
11,MERAGVPGFSPRRSSVEAKMQSTSCSVRKSSTVPAVVLLLSWGQRRGG [HMMW-12],Soluble
12,MERAGVPGFSPRVEAKMQSTSCSVRKSSTVTAWPAVVLLLSWGQRRGG [HMMW-5],Soluble

# Same assay, conditions: polypeptides obtained by chemical solid-phase synthesis
row,Molecule,solubility
1,SVEAKMQSTSCSVRKSSTVTAWPAVVLLLSWGQRRGG [HMMW15-51],good solubility
2,MQSTSCSVRKSSTVTAWPAVVLLLSWGQRRGG [HMMW20-51],good solubility
3,SPRRSSVEAKMQSTSCSVRKSSTVTAWPAVVLLLSWGQRRGG [HMMW10-51],good solubility
4,GVPGFSPRRSSVEAKMQSTSCSVRKSSTVTAWPAVVLLLSWGQRRGG [HMMW5-51],good solubility
